Measured values taken from publication PMC12748791 (Nature Communications, 2025).

Target: the molecule itself
Experiment: cryo-EM structure; full-length AE1 from DSP-cross-linked human erythrocyte ghost membranes in MSP-1E3D1/POPC nanodiscs; dimer configurations IF1/OF, OF/OF and IF1/IF2 separated by 3D classification

B1: Anion Exchanger 1 (AE1) (natural protein, human, UniProt P02730 1-911, looked up)
chain: MEELQDDYEDMMEENLEQEEYEDPDIPESQMEEPAAHDTEATATDYHTTSHPGTHKVYVELQELVMDEKNQELRWMEAARWVQLEENLGENGAWGRPHLSHLTFWSLLELRRVFTKGTVLLDLQETSLAGVANQLLDRFIFEDQIRPQDREELLRALLLKHSHAGELEALGGVKPAVLTRSGDPSQPLLPQHSSLETQLFCEQGDGGTEGHSPSGILEKIPPDSEATLVLVGRADFLEQPVLGFVRLQEAAELEAVELPVPIRFLFVLLGPEAPHIDYTQLGRAAATLMSERVFRIDAYMAQSRGELLHSLEGFLDCSLVLPPTDAPSEQALLSLVPVQRELLRRRYQSSPAKPDSSFYKGLDLNGGPDDPLQQTGQLFGGLVRDIRRRYPYYLSDITDAFSPQVLAAVIFIYFAALSPAITFGGLLGEKTRNQMGVSELLISTAVQGILFALLGAQPLLVVGFSGPLLVFEEAFFSFCETNGLEYIVGRVWIGFWLILLVVLVVAFEGSFLVRFISRYTQEIFSFLISLIFIYETFSKLIKIFQDHPLQKTYNYNVLMVPKPQGPLPNTALLSLVLMAGTFFFAMMLRKFKNSSYFPGKLRRVIGDFGVPISILIMVLVDFFIQDTYTQKLSVPDGFKVSNSSARGWVIHPLGLRSEFPIWMMFASALPALLVFILIFLESQITTLIVSKPERKMVKGSGFHLDLLLVVGMGGVAALFGMPWLSATTVRSVTHANALTVMGKASTPGAAAQIQEVKEQRISGLLVAVLVGLSILMEPILSRIPLAVLFGIFLYMGVTSLSGIQLFDRILLLFKPPKYHPDVPYVKRVKTWRMHLFTGIQIICLAVLWVVKSTPASLALPFVLILTVPLRRVLLPLIFRNVELQCLDADDAKATFDEEEGRDEYDEVAMPV
modifications: N-linked glycosylation at N642; lysines cross-linked with DSP (K539 and K851)
notes: Anion exchanger 1 (band 3), human, 911 residues: cytosolic domain 1-347, linker 348-370, transmembrane domain 371-911; the full-length protein was purified, only the transmembrane domain was resolved in the maps; Native protein from red blood cells; held in lipid nanodiscs (MSP-1E3D1, POPC) with PIP2 and POPC lipids at the dimer interface; also called band 3; SLC4A1
  stoichiometry N: 2
